The target of assay [1] is T1, recombinant PD-L1 extracellular domain fused to the mouse IgG1 Fc domain (SinoBiologicals) (human; mouse, UniProt Q9NZQ7 19-238).
T1 construct: extracellular domain; also called human PD-L1-mouse Fc; PD-L1-mouse Fc protein; not shown: mouse IgG1 Fc domain
As to the kind of experiment: BLI (Octet Red 96); ratio of the printed KDs, variant over 2LIG189. The procedure: (§1) Affinities of resulting variants were measured using the bio-layer interferometry technology on an Octet Red 96 instrument (ForteBio). In brief, recombinant PD-L1 extracellular domain fused to the mouse IgG1 Fc domain (SinoBiologicals) was immobilized on anti-murine IgG quantitation (AMQ) biosensors (ForteBio). Loaded sensors were incubated with a serial dilution of PD-L1 VHH variant, association and dissociation monitored and kinetic parameters were calculated using the Octet Data Analysis software v10 (ForteBio).
(§2) The aspartic acid at position 1 was included to avoid the risk of pyroglutamate formation. […] Resulting mutants were purified and affinities measured as described in Example 1.
In general terms: In BLI a coated tip is dipped into the sample, and binding shifts an interference pattern.

In assay [2] the target is T1, recombinant PD-L1 extracellular domain …. In words: BLI (Octet Red 96), PD-L1-mouse IgG1 Fc on AMQ biosensors, VHH dilution series. Here is the method:
as §1, §2

The values that follow come from patent US20230002493A1 (ORIONIS BIOSCIENCES, published 2023).

T1 sequence (Q9NZQ7 19-238): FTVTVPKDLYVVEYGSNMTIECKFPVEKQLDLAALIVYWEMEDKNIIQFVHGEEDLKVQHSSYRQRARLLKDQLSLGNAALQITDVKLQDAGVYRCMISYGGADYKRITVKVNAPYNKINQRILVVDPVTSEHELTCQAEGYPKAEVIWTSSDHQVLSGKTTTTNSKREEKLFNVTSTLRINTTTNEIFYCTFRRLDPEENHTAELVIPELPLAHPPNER

B1: 2LIG189_D33E (VHH)
VHH: QVQLQESGGGLVQAGGSLRLSCAASGKIFSGNEMGWYRQAPGKQRELVGIITSGGITDYADAVKGRFTISRDNAKNMMYLQMNSLKPEDTAVYYCNMRDRTIWWGQGTQVTVSS
As for B1, in assay [1], the “Ratio KD” value is 52.1. Moreover, in assay [2], the Kd stood at 41.2 nM, the koff amounted to 0.00883 s⁻¹ and the kon is 214000 M⁻¹ s⁻¹.

B2: 2LIG189_M97H (VHH)
VHH: QVQLQESGGGLVQAGGSLRLSCAASGKIFSGNDMGWYRQAPGKQRELVGIITSGGITDYADAVKGRFTISRDNAKNMMYLQMNSLKPEDTAVYYCNHRDRTIWWGQGTQVTVSS
In the case of B2, the binding result in assay [2] is given as “no binding”.

B3: 2LIG189_M97R (VHH)
VHH: QVQLQESGGGLVQAGGSLRLSCAASGKIFSGNDMGWYRQAPGKQRELVGIITSGGITDYADAVKGRFTISRDNAKNMMYLQMNSLKPEDTAVYYCNRRDRTIWWGQGTQVTVSS
Consider B3, for which the binding result in assay [2] was “no binding”.

B4: 2LIG189_N32T (VHH)
VHH: QVQLQESGGGLVQAGGSLRLSCAASGKIFSGTDMGWYRQAPGKQRELVGIITSGGITDYADAVKGRFTISRDNAKNMMYLQMNSLKPEDTAVYYCNMRDRTIWWGQGTQVTVSS
For B4, the “Ratio KD” value in assay [1] is 7.97. In assay [2], the Kd was determined as 6.31 nM, the koff was found to be 0.00104 s⁻¹ and the kon worked out at 164000 M⁻¹ s⁻¹.

B5: 2LIG189_N32H (VHH)
VHH: QVQLQESGGGLVQAGGSLRLSCAASGKIFSGHDMGWYRQAPGKQRELVGIITSGGITDYADAVKGRFTISRDNAKNMMYLQMNSLKPEDTAVYYCNMRDRTIWWGQGTQVTVSS
Turning to B5, in assay [1], the “Ratio KD” value came to 2.28. In addition, in assay [2], the Kd stood at 1.81 nM, the off-rate (koff) turned out to be 0.000446 s⁻¹ and the kon was 247000 M⁻¹ s⁻¹.

B6: 2LIG189_M97E (VHH)
VHH: QVQLQESGGGLVQAGGSLRLSCAASGKIFSGNDMGWYRQAPGKQRELVGIITSGGITDYADAVKGRFTISRDNAKNMMYLQMNSLKPEDTAVYYCNERDRTIWWGQGTQVTVSS
With B6, the binding result in assay [2] was “no binding”.

B7: 2LIG189_N32L (VHH)
VHH: QVQLQESGGGLVQAGGSLRLSCAASGKIFSGLDMGWYRQAPGKQRELVGIITSGGITDYADAVKGRFTISRDNAKNMMYLQMNSLKPEDTAVYYCNMRDRTIWWGQGTQVTVSS
Regarding B7, in assay [1], the “Ratio KD” value stood at 2.04. Further, in assay [2], the Kd was 1.62 nM, the koff turned out to be 0.000195 s⁻¹ and the kon amounted to 121000 M⁻¹ s⁻¹.

B8: 2LIG189_M97F (VHH)
VHH: QVQLQESGGGLVQAGGSLRLSCAASGKIFSGNDMGWYRQAPGKQRELVGIITSGGITDYADAVKGRFTISRDNAKNMMYLQMNSLKPEDTAVYYCNFRDRTIWWGQGTQVTVSS
Regarding B8, the “Ratio KD” value in assay [1] was found to be 1.9. Moreover, in assay [2], the Kd was found to be 1.51 nM, the dissociation rate constant (koff) is 0.000208 s⁻¹ and the on-rate constant (kon) was found to be 138000 M⁻¹ s⁻¹.

B9: 2LIG189_N32S (VHH)
VHH: QVQLQESGGGLVQAGGSLRLSCAASGKIFSGSDMGWYRQAPGKQRELVGIITSGGITDYADAVKGRFTISRDNAKNMMYLQMNSLKPEDTAVYYCNMRDRTIWWGQGTQVTVSS
As for B9, the “Ratio KD” value in assay [1] is 2.27. In assay [2], the Kd is 1.8 nM, the koff worked out at 0.000292 s⁻¹ and the kon was determined as 163000 M⁻¹ s⁻¹.

B10: 2LIG189_D33L (VHH)
VHH: QVQLQESGGGLVQAGGSLRLSCAASGKIFSGNLMGWYRQAPGKQRELVGIITSGGITDYADAVKGRFTISRDNAKNMMYLQMNSLKPEDTAVYYCNMRDRTIWWGQGTQVTVSS
For B10, the “Ratio KD” value in assay [1] was 20.7. In addition, in assay [2], the Kd is 16.4 nM, the koff is 0.0342 s⁻¹ and the kon was 2.08e+06 M⁻¹ s⁻¹.

B11: 2LIG189_D33I (VHH)
VHH: QVQLQESGGGLVQAGGSLRLSCAASGKIFSGNIMGWYRQAPGKQRELVGIITSGGITDYADAVKGRFTISRDNAKNMMYLQMNSLKPEDTAVYYCNMRDRTIWWGQGTQVTVSS
As for B11, the binding result in assay [2] is on record as “no binding”.

B12: 2LIG189_M97Q (VHH)
VHH: QVQLQESGGGLVQAGGSLRLSCAASGKIFSGNDMGWYRQAPGKQRELVGIITSGGITDYADAVKGRFTISRDNAKNMMYLQMNSLKPEDTAVYYCNQRDRTIWWGQGTQVTVSS
With B12, the binding result in assay [2] is reported as “no binding”.

B13: 2LIG189_D33V (VHH)
VHH: QVQLQESGGGLVQAGGSLRLSCAASGKIFSGNVMGWYRQAPGKQRELVGIITSGGITDYADAVKGRFTISRDNAKNMMYLQMNSLKPEDTAVYYCNMRDRTIWWGQGTQVTVSS
As for B13, the binding result in assay [2] was “no binding”.

B14: 2LIG189_N32F (VHH)
VHH: QVQLQESGGGLVQAGGSLRLSCAASGKIFSGFDMGWYRQAPGKQRELVGIITSGGITDYADAVKGRFTISRDNAKNMMYLQMNSLKPEDTAVYYCNMRDRTIWWGQGTQVTVSS
Turning to B14, in assay [1], the “Ratio KD” value turned out to be 0.7. Also, in assay [2], the Kd came to 0.55 nM, the koff was found to be 0.000176 s⁻¹ and the kon is 320000 M⁻¹ s⁻¹.

B15: 2LIG189_D33Q (VHH)
VHH: QVQLQESGGGLVQAGGSLRLSCAASGKIFSGNQMGWYRQAPGKQRELVGIITSGGITDYADAVKGRFTISRDNAKNMMYLQMNSLKPEDTAVYYCNMRDRTIWWGQGTQVTVSS
On to B15, for which the “Ratio KD” value in assay [1] came out at 31.6. Also, in assay [2], the Kd amounted to 25 nM, the off-rate (koff) amounted to 0.0118 s⁻¹ and the kon was determined as 474000 M⁻¹ s⁻¹.

B16: 2LIG189_N32V (VHH)
VHH: QVQLQESGGGLVQAGGSLRLSCAASGKIFSGVDMGWYRQAPGKQRELVGIITSGGITDYADAVKGRFTISRDNAKNMMYLQMNSLKPEDTAVYYCNMRDRTIWWGQGTQVTVSS
In the case of B16, in assay [1], the “Ratio KD” value was determined as 3.82. Moreover, in assay [2], the Kd came to 3.02 nM, the koff is 0.0009 s⁻¹ and the kon was found to be 298000 M⁻¹ s⁻¹.

B17: 2LIG189_D33F (VHH)
VHH: QVQLQESGGGLVQAGGSLRLSCAASGKIFSGNFMGWYRQAPGKQRELVGIITSGGITDYADAVKGRFTISRDNAKNMMYLQMNSLKPEDTAVYYCNMRDRTIWWGQGTQVTVSS
As to B17, the “Ratio KD” value in assay [1] amounted to 12.4. Besides, in assay [2], the Kd turned out to be 9.78 nM, the koff came out at 0.0107 s⁻¹ and the on-rate (kon) came to 1.09e+06 M⁻¹ s⁻¹.

B18: 2LIG189_D33Y (VHH)
VHH: QVQLQESGGGLVQAGGSLRLSCAASGKIFSGNYMGWYRQAPGKQRELVGIITSGGITDYADAVKGRFTISRDNAKNMMYLQMNSLKPEDTAVYYCNMRDRTIWWGQGTQVTVSS
On to B18, for which the “Ratio KD” value in assay [1] came out at 2.82. In assay [2], the Kd came to 2.23 nM, the koff is 0.00835 s⁻¹ and the kon is 3.75e+06 M⁻¹ s⁻¹.

B19: 2LIG189_N32G (VHH)
VHH: QVQLQESGGGLVQAGGSLRLSCAASGKIFSGGDMGWYRQAPGKQRELVGIITSGGITDYADAVKGRFTISRDNAKNMMYLQMNSLKPEDTAVYYCNMRDRTIWWGQGTQVTVSS
For the molecule B19, the “Ratio KD” value in assay [1] was determined as 24. Besides, in assay [2], the Kd came out at 19 nM, the dissociation rate constant (koff) was 0.00228 s⁻¹ and the kon is 120000 M⁻¹ s⁻¹.

B20: 2LIG189_M97Y (VHH)
VHH: QVQLQESGGGLVQAGGSLRLSCAASGKIFSGNDMGWYRQAPGKQRELVGIITSGGITDYADAVKGRFTISRDNAKNMMYLQMNSLKPEDTAVYYCNYRDRTIWWGQGTQVTVSS
As for B20, in assay [1], the “Ratio KD” value amounted to 6.09. For the same molecule, in assay [2], the Kd was found to be 4.82 nM, the koff was determined as 0.00146 s⁻¹ and the kon was found to be 303000 M⁻¹ s⁻¹.

B21: 2LIG189_N32I (VHH)
VHH: QVQLQESGGGLVQAGGSLRLSCAASGKIFSGIDMGWYRQAPGKQRELVGIITSGGITDYADAVKGRFTISRDNAKNMMYLQMNSLKPEDTAVYYCNMRDRTIWWGQGTQVTVSS
B21: the “Ratio KD” value in assay [1] stood at 8.23. In assay [2], the Kd is 6.51 nM, the off-rate (koff) turned out to be 0.000872 s⁻¹ and the association rate constant (kon) came to 134000 M⁻¹ s⁻¹.

B22: 2LIG189_N32A (VHH)
VHH: QVQLQESGGGLVQAGGSLRLSCAASGKIFSGADMGWYRQAPGKQRELVGIITSGGITDYADAVKGRFTISRDNAKNMMYLQMNSLKPEDTAVYYCNMRDRTIWWGQGTQVTVSS
For B22, in assay [1], the “Ratio KD” value was 3.41. Moreover, in assay [2], the dissociation constant (Kd) came out at 2.7 nM, the koff came to 0.000733 s⁻¹ and the kon stood at 272000 M⁻¹ s⁻¹.

B23: 2LIG189_D33R (VHH)
VHH: QVQLQESGGGLVQAGGSLRLSCAASGKIFSGNRMGWYRQAPGKQRELVGIITSGGITDYADAVKGRFTISRDNAKNMMYLQMNSLKPEDTAVYYCNMRDRTIWWGQGTQVTVSS
As to B23, in assay [2], the binding result is recorded as “no binding”.

B24: 2LIG189_N32E (VHH)
VHH: QVQLQESGGGLVQAGGSLRLSCAASGKIFSGEDMGWYRQAPGKQRELVGIITSGGITDYADAVKGRFTISRDNAKNMMYLQMNSLKPEDTAVYYCNMRDRTIWWGQGTQVTVSS
For B24, the “Ratio KD” value in assay [1] was 0.68. In assay [2], the Kd came out at 0.542 nM, the koff was determined as 9.85e-05 s⁻¹ and the kon came to 182000 M⁻¹ s⁻¹.

The term Kd denotes the constant that tells how readily two partners part at equilibrium. The term koff denotes a measure of how fast the partners let go of each other. A word on the kon: it is a measure of how fast the partners come together.
